The labels stand for the following.
B1: CPEB3 Ribozyme (parent)
chain: UAACAGGGGGCCACAGCAGAAGCGUUCACGUCGCAGCCCCUGUCAGAUUCUGGUGAAUCUGCGAAUUCUGCUGUAUAUCUC

The variants in this series derive from B1. The experiment in a line: self-cleavage, relative activity (ratio to wild type); higher = more cleavage; in vitro, sequencing. The essentials: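 Barcoded CPEB3 ribozyme mutants, produced by rounds of error-prone PCR, self-cleaved while being transcribed with T7 RNA polymerase for 5 hours at 37°C and during a subsequent 15 min DNase I step before EDTA was added. Sequencing of template-switched cDNA on Illumina gave cleaved and total reads, and DNA sequencing assigned barcodes to variants. Each variant's relative activity is its cleaved/total read fraction divided by the unmutated ribozyme's fraction, averaged across three batches. A variant needed a minimum of 5 reads.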
UAACAGGGGGCCACAGCAGAAGCGUCCACGUCGCAGCUCCUGUCAGAUUCUGGUGAAUCUGCGAAUUCUGCUGUAUAUCUC [U26C C38U]: the self-cleavage amounted to 0.4.
Next, UAACAGGGGGCCACAGCAGAAGCGUUCACGUCGCAGCCCCUGUCAUAUUCUGGUGAAUCUGCGAAUUCUGCGGUAUAUCUC [G46U U72G]: 0.25; UAACAGGGGGCCACAGCAGAAGCGUUCUCGUCGCAGCCCCUGUCGGAUUCUGGUGAAUCUGCGAAUUCUGCUGUAUAUCUC [A28U A45G]: 0.47; UAACAGGGGGCCACUGCAGAAGCGUUCACGUCGCAGCCCCUGUCAGAUUCUGGUAAAUCUGCGAAUUCUGCUGUAUAUCUC [A15U G55A]: 0.46.
Next, UAACAGGGGGCCACAGCAGAAGCGUCCACGUCGCAGCCCCUGUCAGAUUUUGGUGAAUCUGCGAAUUCUGCUGUAUAUCUC [U26C C50U]: 0.27; UAACAGGGGGCCACAGCAGAAGCGUUCACGUCGCAGCCCCUGUCAGAUUCUGGCGAAUCUGCGAAUUCCGCUGUAUAUCUC [U54C U69C]: 0.52; UAACAGGGGGCCGCAGCAGAAGCGUUCACUUCGCAGCCCCUGUCAGAUUCUGGUGAAUCUGCGAAUUCUGCUGUAUAUCUC [A13G G30U]: 0.18.
UAACAGGGGGCCACAGCAGAAGCGUUCACGUCGCAGCCCCUGUCAGAUUCUGGUGAAUCUGUGUAUUCUGCUGUAUAUCUC [C62U A64U]: the self-cleavage was found to be 0.29.
Turning to UAACAGGGGGCCACAGCAGAAGCGUUCACGUCGCAGCCCCUGUCAGAUUCUGGUGAAUCUGAGAAUUCUGCAGUAUAUCUC [C62A U72A], the self-cleavage was 0.17.
Next, UAACAGGGGGCCACAGCAGAAGCGUUCUCGUUGCAGCCCCUGUCAGAUUCUGGUGAAUCUGCGAAUUCUGCUGUAUAUCUC [A28U C32U]: 0.17; UAACAGGGGGCCACAGCAGAAGCGUUCACGUCGCAGCCCCUGUCAGAUUCUGGUUAAACUGCGAAUUCUGCUGUAUAUCUC [G55U U58A]: 0.25; UAACAGGGGGCCACAGCAGAAGCGUUCACCUCGCAGCCCCUGUCUGAUUCUGGUGAAUCUGCGAAUUCUGCUGUAUAUCUC [G30C A45U]: 0.09.
Regarding AAACAGGGGGCCACAGCAGAAGCGUUAACGUCGCAGCCCCUGUCAGAUUCUGGUGAAUCUGCGAAUUCUGCUGUAUAUCUC [U1A C27A], the self-cleavage was 0.22.
For the variant UAACAGGGGGCCACAGCAGAAGCGUUCACGUCGCAGCCCCUGCCAGAUUCUGGUGAAUCUGCGAACUCUGCUGUAUAUCUC [U43C U66C], the self-cleavage was found to be 0.33.
As for UAAUAGGGGGCCACAGCAGAAGCGUUCACGACGCAGCCCCUGUCAGAUUCUGGUGAAUCUGCGAAUUCUGCUGUAUAUCUC [C4U U31A], the self-cleavage was determined as 0.82.
UAACAGGGGGCCACAGCAGAAGCGUUCACGUCGCAGCCCCUGUCAGACUCUCGUGAAUCUGCGAAUUCUGCUGUAUAUCUC [U48C G52C]: the self-cleavage stood at 0.42.
Consider UAACAGGGGGCCACAGCAGAAGCGCUCACUUCGCAGCCCCUGUCAGAUUCUGGUGAAUCUGCGAAUUCUGCUGUAUAUCUC [U25C G30U], for which the self-cleavage is 0.16.
Next, UAACAGGGGGCCACAGCAGAAGCGUUCACGUCGCAGCCCCUGUCAGUUUCUGGUGAAUCGGCGAAUUCUGCUGUAUAUCUC [A47U U60G]: 0.29.
Take UAACAGGGGGCCACAGCAGAAGCGUUCACGUCGCAACCCCUGUCAGAUUCUGGUGAAUCUGAGAAUUCUGCUGUAUAUCUC [G36A C62A]: the self-cleavage amounted to 0.41.
Next, UAAUAGGGGGCCACAGUAGAAGCGUUCACGUCGCAGCCCCUGUCAGAUUCUGGUGAAUCUGCGAAUUCUGCUGUAUAUCUC [C4U C17U]: 1.05.
On to UAACAGGGGGCCACAGCAGAAGCGUUCACGUCGCAGCCCCUGUCAGAUUCUCGUGAAUCUGCGAAUUUUGCUGUAUAUCUC [G52C C68U], for which the self-cleavage amounted to 1.18.
With UAACAGGGGGUCACAGCAGAAGCGUUCACGUCGCAGCCCCUGUCAGAUUCUAGUGAAUCUGCGAAUUCUGCUGUAUAUCUC [C11U G52A], the self-cleavage came to 0.62.
Next, UAACAGGGGGCCACAGCAGAUGCGUUCACGUCGCAGCCCCUGUCAGAUUCUGGUGAAUCUGCGAAUUCUGCUGUAUAUCUC [A21U]: 0.37; UAACAGGGGGCCACGGCAGAAGCGUUCACGUCGCAGCCCCUGUCAGAUUCUGGUGAAUCUGCGAGUUCUGCUGUAUAUCUC [A15G A65G]: 0.39; UAACAGGGGGCCACAGCAGAAGCGUUCACGCCGCAGCCCCUGUCAGAUUCUGGUGAAUCUGCGUAUUCUGCUGUAUAUCUC [U31C A64U]: 0.31.
Take UAACAGGGGGCCACAGCAGAAGCGUUCACGCCGCAGCCCCUGUCAGAUUCUGGUGAAUCGGCGAAUUCUGCUGUAUAUCUC [U31C U60G]: the self-cleavage was 0.15.
To UAACAGGGGGCCACAGCAGAAGCGUUCAUGUCGCAGCCCUUGUCAGAUUCUGGUGAAUCUGCGAAUUCUGCUGUAUAUCUC [C29U C40U] belongs 0.51.
Next, UAACAGGGGGCUACAGCAGAAGCGUUCACGUCGCAGCCCCUGUCAGAUUCUGGUGAAUCUGCGAAUUCUGUUGUAUAUCUC [C12U C71U]: 0.58; UAACAGGGGGCCACAGCAGAAGAGUUCACGUCGCAGCCCCUGUCAGAUUCUGGUGAAUCUGCGAAUUCUGCUGUAUAUCUC [C23A]: 0.3.
As for UAACAGGGGGCCACAGCAGAAGCGUUCACGUCGCAGCCUCUGUCAGAUUCUGGUGAAUCUGCGAAUUCUGCUGAAUAUCUC [C39U U74A], the self-cleavage is 1.08.
Turning to UAACAGGGGGUCACAGCAGAAGCGUUCACGUCGCAGCCCCUGUCAGAUUCUGGUGAAUCUGCGAAUUCUGCGGUAUAUCUC [C11U U72G], the self-cleavage was found to be 0.37.
To UAACAGGGGGCCACAGCAGAAGCGGUCACGUCGCAGCCCCUGUCAGAUUCUAGUGAAUCUGCGAAUUCUGCUGUAUAUCUC [U25G G52A] belongs 0.15.
To UAACAGGGGGCCACAGCAGAAGCGUUCACGUCGCAGCCCCUGUCAGAUUCUGGUGAAUCUGCGAGUUCUGCGGUAUAUCUC [A65G U72G] belongs 0.4; to UAACAGGGGGCCACAGCAGAAGCGUUCACGUCGCAGCCCCUGUCUGAUUCUGAUGAAUCUGCGAAUUCUGCUGUAUAUCUC [A45U G53A], 0.68.

For the origin of these results see the RNAGym collection of RNA variant scans (doi:10.1093/nar/gkz1192).
